The target of this experiment is T1, JIP4[1-103] (human, UniProt O60271-1 1-103).
T1 chain: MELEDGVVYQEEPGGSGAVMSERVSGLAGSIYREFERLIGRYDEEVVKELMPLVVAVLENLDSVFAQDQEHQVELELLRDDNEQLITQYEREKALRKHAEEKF
The experiment can be described thus: ITC.

B1: DLIC1[388-523] (domain or fragment)
chain: PTAAGRPVDASPRVPGGSPRTPNRSVSSNVASVSPIPAGSKKIDPNMKAGATSEGVLANFFNSLLSKKTGSPGGPGVSGGSPAGGAGGGSSGLPPSTKKSGQKPVLDVHAELDRITRKPVTVSPTTPTSPTEGEAS
Regarding B1, the Kd was 4.5 µM.

The term Kd denotes the equilibrium constant for the complex coming apart. A low value points to a tighter complex.

The values above are taken from publication doi:10.1101/2021.10.11.463801 (2021).
